The values that follow come from EP4682166A1 (Guangzhou Enmai Biotechnology Co., Ltd, dated 2026).

In experiment [1] the target is T1, human NMI (N-myc Interacting protein), recombinant protein (human, UniProt Q13287 1-307, limits assumed).
T1 construct: Gene ID: 9111; also called hNMI; antigen
T1 sequence (looked up): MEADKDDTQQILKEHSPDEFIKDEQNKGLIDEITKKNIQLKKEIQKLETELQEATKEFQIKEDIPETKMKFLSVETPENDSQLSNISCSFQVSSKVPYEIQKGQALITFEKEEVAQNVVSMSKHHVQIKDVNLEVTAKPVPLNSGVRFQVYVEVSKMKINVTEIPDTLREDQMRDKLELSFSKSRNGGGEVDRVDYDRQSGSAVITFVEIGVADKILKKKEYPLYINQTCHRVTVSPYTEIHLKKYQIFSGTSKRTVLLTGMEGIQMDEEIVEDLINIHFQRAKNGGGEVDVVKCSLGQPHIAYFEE
The experiment can be described thus: ELISA, binding to hNMI. Background: ELISA stands for enzyme-linked immunosorbent assay.

In experiment [2] the target is T1, human NMI (N-myc Interacting protein), …. Briefly: ELISA EC50 against parent 98G10.

B1: 98G10-H-1 (antibody, V domains shown)
VH: QEQLEESGGDLVKPEGSLTLTCTASGFSFSASYHICWVRQAPGKGLEWIACIYGGSSGSAYYASWAKGRFTISKTSSTTVTLQMTSLTAADTATYFCARAGYYNYGSAGDIYPSSFKLWGPGTLVTVSS
VL: DIVMTQTPASVEAAVGGTVTINCQASQSISTALAWYQQKPGQPPKLLIYTASKVASGVPSRFSGSGSGTQFTLTISDLECADAATYYCQNYYYSSSSITFGGGTEVVVK
notes: also called 98G10 W34H (VH)
Broadly, the EC50 is the midpoint of the concentration-response curve. Take B1: in experiment [1], the half-maximal effective concentration (EC50) turned out to be 0.024 mg/L. The “Fold decrease in affinity” value in experiment [2] came out at 0.77 fold.

B2: 98G10-H-9 (antibody, V domains shown)
VH: QEQLEESGGDLVKPEGSLTLTCTASGFSFSASYHICWVRQAPGKGLEWIACIYGGSSGSAYYASWAKGRFTISKTSSTTVTLQMTSLTAADTATYFCARAGYYNYGSAGDILPSSFKLWGPGTLVTVSS
VL: DIVMTQTPASVEAAVGGTVTINCQASQSISTALAWYQQKPGQPPKLLIYTASKVASGVPSRFSGSGSGTQFTLTISDLECADAATYYCQNYYYSSSSITFGGGTEVVVK
notes: also called 98G10 W34H, Y112L (VH)
With B2, the EC50 in experiment [1] was 0.311 mg/L. Besides, in experiment [2], the “Fold decrease in affinity” value was found to be 10 fold.

B3: 98G10-H-2 (antibody, V domains shown)
VH: QEQLEESGGDLVKPEGSLTLTCTASGFSFSASYYICWVRQAPGKGLEWIACIYGGSSGSAYYASWAKGRFTISKTSSTTVTLQMTSLTAADTATYFCARAGYYNYGSAGDIYPSSFKLWGPGTLVTVSS
VL: DIVMTQTPASVEAAVGGTVTINCQASQSISTALAWYQQKPGQPPKLLIYTASKVASGVPSRFSGSGSGTQFTLTISDLECADAATYYCQNYYYSSSSITFGGGTEVVVK
notes: also called 98G10 W34Y (VH)
Consider B3, for which the EC50 in experiment [1] stood at 0.507 mg/L. Besides, the “Fold decrease in affinity” value in experiment [2] is 16.4 fold.

B4: 98G10-H-3 (antibody, V domains shown)
VH: QEQLEESGGDLVKPEGSLTLTCTASGFSFSASYWICWVRQAPGKGLEWIACIYGGSSGSAYYASWAKGRFTISKTSSTTVTLQMTSLTAADTATYFCARAGYYNYGSAGDIRPSSFKLWGPGTLVTVSS
VL: DIVMTQTPASVEAAVGGTVTINCQASQSISTALAWYQQKPGQPPKLLIYTASKVASGVPSRFSGSGSGTQFTLTISDLECADAATYYCQNYYYSSSSITFGGGTEVVVK
notes: also called 98G10 Y112R (VH)
Turning to B4, the EC50 in experiment [1] amounted to 0.028 mg/L. The “Fold decrease in affinity” value in experiment [2] turned out to be 0.9 fold.

B5: 98G10-H-10 (antibody, V domains shown)
VH: QEQLEESGGDLVKPEGSLTLTCTASGFSFSASYTICWVRQAPGKGLEWIACIYGGSSGSAYYASWAKGRFTISKTSSTTVTLQMTSLTAADTATYFCARAGYYNYGSAGDIRPSSFKLWGPGTLVTVSS
VL: DIVMTQTPASVEAAVGGTVTINCQASQSISTALAWYQQKPGQPPKLLIYTASKVASGVPSRFSGSGSGTQFTLTISDLECADAATYYCQNYYYSSSSITFGGGTEVVVK
notes: also called 98G10 W34T, Y112R (VH)
B5: the concentration giving a half-maximal response (EC50) in experiment [1] stood at 1.86 mg/L. For the same molecule, the “Fold decrease in affinity” value in experiment [2] amounted to 60 fold.

B6: 98G10-H-5 (antibody, V domains shown)
VH: QEQLEESGGDLVKPEGSLTLTCTASGFSFSASYWICWVRQAPGKGLEWIACIYGGSSGSAYYASWAKGRFTISKTSSTTVTLQMTSLTAADTATYFCARAGYYNYGSAGDIEPSSFKLWGPGTLVTVSS
VL: DIVMTQTPASVEAAVGGTVTINCQASQSISTALAWYQQKPGQPPKLLIYTASKVASGVPSRFSGSGSGTQFTLTISDLECADAATYYCQNYYYSSSSITFGGGTEVVVK
notes: also called 98G10 Y112E (VH)
B6: the concentration giving a half-maximal response (EC50) in experiment [1] came out at 1.85 mg/L. Besides, the “Fold decrease in affinity” value in experiment [2] was 59.7 fold.

B7: 98G10-H-8 (antibody, V domains shown)
VH: QEQLEESGGDLVKPEGSLTLTCTASGFSFSASYDICWVRQAPGKGLEWIACIYGGSSGSAYYASWAKGRFTISKTSSTTVTLQMTSLTAADTATYFCARAGYYNYGSAGDIRPSSFKLWGPGTLVTVSS
VL: DIVMTQTPASVEAAVGGTVTINCQASQSISTALAWYQQKPGQPPKLLIYTASKVASGVPSRFSGSGSGTQFTLTISDLECADAATYYCQNYYYSSSSITFGGGTEVVVK
notes: also called 98G10 W34D, Y112R (VH)
B7: the 50% effective concentration (EC50) in experiment [1] is 1.59 mg/L. Further, in experiment [2], the “Fold decrease in affinity” value turned out to be 51.3 fold.

B8: 98G10-H-4 (antibody, V domains shown)
VH: QEQLEESGGDLVKPEGSLTLTCTASGFSFSASYWICWVRQAPGKGLEWIACIYGGSSGSAYYASWAKGRFTISKTSSTTVTLQMTSLTAADTATYFCARAGYYNYGSAGDISPSSFKLWGPGTLVTVSS
VL: DIVMTQTPASVEAAVGGTVTINCQASQSISTALAWYQQKPGQPPKLLIYTASKVASGVPSRFSGSGSGTQFTLTISDLECADAATYYCQNYYYSSSSITFGGGTEVVVK
notes: also called 98G10 Y112S (VH)
On to B8, for which the concentration for a half-maximal effect (EC50) in experiment [1] stood at 0.082 mg/L. Besides, the “Fold decrease in affinity” value in experiment [2] was determined as 2.65 fold.

B9: 98G10-H-11 (antibody, V domains shown)
VH: QEQLEESGGDLVKPEGSLTLTCTASGFSFSASYHICWVRQAPGKGLEWIACIYGGSSGSAYYASWAKGRFTISKTSSTTVTLQMTSLTAADTATYFCARAGYYNYGSAGDIRPSSFKLWGPGTLVTVSS
VL: DIVMTQTPASVEAAVGGTVTINCQASQSISTALAWYQQKPGQPPKLLIYTASKVASGVPSRFSGSGSGTQFTLTISDLECADAATYYCQNYYYSSSSITFGGGTEVVVK
notes: also called 98G10 W34H, Y112R (VH)
For B9, the EC50 in experiment [1] was 0.026 mg/L. In addition, the “Fold decrease in affinity” value in experiment [2] was 0.84 fold.

B10: 98G10-H-13 (antibody, V domains shown)
VH: QEQLEESGGDLVKPEGSLTLTCTASGFSFSASYKICWVRQAPGKGLEWIACIYGGSSGSAYYASWAKGRFTISKTSSTTVTLQMTSLTAADTATYFCARAGYYNYGSAGDISPSSFKLWGPGTLVTVSS
VL: DIVMTQTPASVEAAVGGTVTINCQASQSISTALAWYQQKPGQPPKLLIYTASKVASGVPSRFSGSGSGTQFTLTISDLECADAATYYCQNYYYSSSSITFGGGTEVVVK
notes: also called 98G10 W34K, Y112S (VH)
As for B10, the half-maximal effective concentration (EC50) in experiment [1] worked out at 1.68 mg/L. For the same molecule, the “Fold decrease in affinity” value in experiment [2] worked out at 54.1 fold.

B11: 98G10-H-6 (antibody, V domains shown)
VH: QEQLEESGGDLVKPEGSLTLTCTASGFSFSASYWICWVRQAPGKGLEWIACIYGGSSGSAYYASWAKGRFTISKTSSTTVTLQMTSLTAADTATYFCARAGYYNYGSAGDIQPSSFKLWGPGTLVTVSS
VL: DIVMTQTPASVEAAVGGTVTINCQASQSISTALAWYQQKPGQPPKLLIYTASKVASGVPSRFSGSGSGTQFTLTISDLECADAATYYCQNYYYSSSSITFGGGTEVVVK
notes: also called 98G10 Y112Q (VH)
With B11, the EC50 in experiment [1] came to 0.092 mg/L. Moreover, the “Fold decrease in affinity” value in experiment [2] came out at 2.97 fold.

B12: 98G10-H-7 (antibody, V domains shown)
VH: QEQLEESGGDLVKPEGSLTLTCTASGFSFSASYRICWVRQAPGKGLEWIACIYGGSSGSAYYASWAKGRFTISKTSSTTVTLQMTSLTAADTATYFCARAGYYNYGSAGDIRPSSFKLWGPGTLVTVSS
VL: DIVMTQTPASVEAAVGGTVTINCQASQSISTALAWYQQKPGQPPKLLIYTASKVASGVPSRFSGSGSGTQFTLTISDLECADAATYYCQNYYYSSSSITFGGGTEVVVK
notes: also called 98G10 W34R, Y112R (VH)
In the case of B12, the EC50 in experiment [1] is 1.56 mg/L. The “Fold decrease in affinity” value in experiment [2] came to 50.4 fold.

B13: 98G10-H-12 (antibody, V domains shown)
VH: QEQLEESGGDLVKPEGSLTLTCTASGFSFSASYHICWVRQAPGKGLEWIACIYGGSSGSAYYASWAKGRFTISKTSSTTVTLQMTSLTAADTATYFCARAGYYNYGSAGDISPSSFKLWGPGTLVTVSS
VL: DIVMTQTPASVEAAVGGTVTINCQASQSISTALAWYQQKPGQPPKLLIYTASKVASGVPSRFSGSGSGTQFTLTISDLECADAATYYCQNYYYSSSSITFGGGTEVVVK
notes: also called 98G10 W34H, Y112S (VH)
In the case of B13, the concentration for a half-maximal effect (EC50) in experiment [1] stood at 0.081 mg/L. The “Fold decrease in affinity” value in experiment [2] is 2.61 fold.
